According to US20170306005A1 (NASCIENT, published 2017):

Tests used:
[1] = molecular target: T1, Human FGB-rCd4; experiment: ELISA (DELFIA), antigen coated on the well, purified Fab at 50 nM, detected with anti-kappa or anti-lambda mAb and Europium-conjugated anti-mouse mAb
T1 construct: Not the same construct as m1, which has the FBG at the C terminus; also called human TNC FBG-rCD4; human tenascin-C FBG-rCd4-His (FBG at the N terminus of the rat Cd4 tag); not shown: rat Cd4 (domains 3 and 4) tag, the C-terminal His6 tag and the vector-derived junction residues of pBIOCAM4
T1 chain: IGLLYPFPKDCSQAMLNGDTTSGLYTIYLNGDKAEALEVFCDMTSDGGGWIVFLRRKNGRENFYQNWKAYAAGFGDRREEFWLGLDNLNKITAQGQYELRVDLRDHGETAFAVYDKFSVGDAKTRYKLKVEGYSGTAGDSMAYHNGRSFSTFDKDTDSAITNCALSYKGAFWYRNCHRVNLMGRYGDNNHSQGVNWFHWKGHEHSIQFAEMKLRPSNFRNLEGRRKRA

[2] = molecular target: T2, human tenascin-R rCd4-His-FBG (rat; human, UniProt P05540 207-392, limits assumed); experiment: SPR (BIAcore), Fab captured (23 nM) on anti-CL kappa / anti-CL lambda CM5 sensor chip, rCd4-FBG injected up to 2 µM; steady-state plot of response against concentration [Con't]
T2 construct: domain: domains 3 and 4; C-terminal FBG fusion; also called Hu TNR; human TNR rCd4-His-FBG; not shown: 6His tag
T2 sequence (chain (part 1 of 2)): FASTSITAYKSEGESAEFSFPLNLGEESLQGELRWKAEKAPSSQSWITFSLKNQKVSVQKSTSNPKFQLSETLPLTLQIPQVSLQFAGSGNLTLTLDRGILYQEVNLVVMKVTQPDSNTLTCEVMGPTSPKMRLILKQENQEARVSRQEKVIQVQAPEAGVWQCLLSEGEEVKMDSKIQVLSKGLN
T2 sequence (chain (part 2 of 2)): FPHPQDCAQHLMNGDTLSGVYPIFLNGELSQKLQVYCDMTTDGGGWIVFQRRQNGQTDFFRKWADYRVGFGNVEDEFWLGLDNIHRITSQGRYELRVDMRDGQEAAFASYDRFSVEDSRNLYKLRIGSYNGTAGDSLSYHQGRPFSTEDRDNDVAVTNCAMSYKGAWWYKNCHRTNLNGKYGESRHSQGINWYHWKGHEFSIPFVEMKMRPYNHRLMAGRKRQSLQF
Method: (§1) Experiments were performed using a BIAcore T100 instrument with CM5 sensor chip according to the protocol provided with the Human Fab Capture Kit (GE, 28-9583-25). […] After reference signal subtraction, the data was fitted to a global 1:1 fit using the T100 BIAevaluation software (FIGS. 6 a-d).

[3] = molecular target: T2, human tenascin-R rCd4-His-FBG; experiment: SPR steady state, captured Fab, 25 C
Method: as §1

[4] = molecular target: T3, mouse tenascin-C rCd4-His-FBG (rat; mouse, UniProt P05540 207-392, limits assumed); experiment: SPR steady state, captured Fab, 25 C
T3 construct: domain: domains 3 and 4; C-terminal FBG fusion; biotinylated in the ELISA screen; also called Mu TNC; mouse TNC rCd4-His-FBG; not shown: 6His tag
T3 sequence (chain (part 1 of 2)): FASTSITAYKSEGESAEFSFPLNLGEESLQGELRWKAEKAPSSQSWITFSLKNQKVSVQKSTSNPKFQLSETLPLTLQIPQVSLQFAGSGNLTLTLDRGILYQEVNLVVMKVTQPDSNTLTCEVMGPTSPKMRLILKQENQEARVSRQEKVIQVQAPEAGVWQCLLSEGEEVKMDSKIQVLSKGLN
T3 sequence (chain (part 2 of 2)): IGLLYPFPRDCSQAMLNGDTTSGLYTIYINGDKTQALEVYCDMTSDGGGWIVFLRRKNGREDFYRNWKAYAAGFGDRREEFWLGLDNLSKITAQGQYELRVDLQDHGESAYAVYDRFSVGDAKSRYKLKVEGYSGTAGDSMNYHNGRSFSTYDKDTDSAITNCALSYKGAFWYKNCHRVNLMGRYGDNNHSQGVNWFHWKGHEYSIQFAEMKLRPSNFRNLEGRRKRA
Method: as §1

[5] = molecular target: T2, human tenascin-R rCd4-His-FBG; experiment: SPR, captured Fab, 25 C
Method: as §1

[6] = molecular target: T4, human tenascin-C rCd4-His-FBG (rat; human, UniProt P05540 207-392, limits assumed); experiment: SPR, captured Fab, 25 C
T4 construct: domain: domains 3 and 4; C-terminal FBG fusion; biotinylated in the ELISA and HTRF screens; also called Hu TNC; human TNC rCd4-His-FBG; not shown: 6His tag
T4 sequence (chain (part 1 of 2)): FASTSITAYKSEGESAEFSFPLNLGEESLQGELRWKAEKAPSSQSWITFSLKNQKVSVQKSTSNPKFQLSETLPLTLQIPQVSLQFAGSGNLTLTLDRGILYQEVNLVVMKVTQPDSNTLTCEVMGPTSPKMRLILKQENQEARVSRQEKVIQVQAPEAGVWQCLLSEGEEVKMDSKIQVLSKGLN
T4 sequence (chain (part 2 of 2)): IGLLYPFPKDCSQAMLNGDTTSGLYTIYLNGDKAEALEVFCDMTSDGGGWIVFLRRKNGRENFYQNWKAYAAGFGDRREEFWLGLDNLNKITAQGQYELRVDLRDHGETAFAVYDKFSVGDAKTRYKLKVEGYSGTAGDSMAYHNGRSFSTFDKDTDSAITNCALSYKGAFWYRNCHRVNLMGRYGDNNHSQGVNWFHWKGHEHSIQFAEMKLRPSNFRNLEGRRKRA
Method: as §1

[7] = molecular target: T3, mouse tenascin-C rCd4-His-FBG; experiment: SPR, captured Fab, 25 C
Method: as §1

[8] = molecular target: T5, human Fc-His-FBG (human, UniProt P24821 1974-2201); experiment: cell-based or functional assay
T5 sequence: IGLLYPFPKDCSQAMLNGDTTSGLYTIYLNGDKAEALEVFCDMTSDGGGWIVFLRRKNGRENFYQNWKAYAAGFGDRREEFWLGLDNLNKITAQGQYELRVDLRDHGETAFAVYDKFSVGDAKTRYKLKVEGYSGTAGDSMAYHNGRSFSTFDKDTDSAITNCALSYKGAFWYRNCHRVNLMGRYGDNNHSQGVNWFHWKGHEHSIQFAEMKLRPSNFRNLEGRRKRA

- binding result [1]: binds
- Kd [2]: 1110 nM
- Kd [3]: 913 nM
- Kd [4]: 41.2 nM
- Kd [5]: 1030 nM
- koff [5]: 0.57 s⁻¹
- kon [5]: 555000 M⁻¹ s⁻¹
- Kd [6]: 8.49 nM
- koff [6]: 0.0131 s⁻¹
- kon [6]: 1.54e+06 M⁻¹ s⁻¹
- Kd [7]: 48.4 nM
- koff [7]: 0.0716 s⁻¹
- kon [7]: 1.48e+06 M⁻¹ s⁻¹
- IC50, inhibition of Fc-His-HuFBG-evoked IL-8 release, THP1-Blue cells [8]: 14.9 nM
- IC50, inhibition of Fc-His-HuFBG-evoked alkaline phosphatase, THP1-Blue cells [8]: 7.2 nM
B1: Fab D8 (Fab, V domains shown)
VH: EVQLVQSGAEVKKPGASVKVSCKASGYTFTSYGISWVRQAPGQGLEWMGWISAYNGNTNYAQKLQGRVTMTTDTSTSTAYMELRSLRSDDTAVYYCARNQDSSSDYWGQGTLVTVSS
VL: DIQMTQSPASLPTSVGDRVTITCRASQYIQGFLNWYQQKPGKAPKLLIYDASNLETGVPSRFSGSGSGTDFTLTISSLQPEDFATYYCQQSYSTLQTFGQGTKVDIKR
notes: monomeric Fab
